Data as given in paper PMC9062482, “Structural and genome-wide analyses suggest that transposon-derived protein SETMAR alters transcription and splicing”.

What was measured:
[1] = target: SETMAR DNA-binding domain, residues 329 to 440 (C381R) (I359M) (L423M) (human); assay: crystal structure; SETMAR DBD 329-440 (C381R, I359M, L423M) with brominated 25-mer TIR DNA duplex, protein:DNA 1:1.2, 50 mM Hepes pH 7.5, 150 mM NaCl, 1 mM DTT; hanging drops at 20 °C, 0.1 M magnesium formate, 15% PEG3350; 2.37 Å
SETMAR full-length WT [2] = target: T1, SETMAR full-length WT (Homo sapiens, UniProt Q53H47 14-684); assay: fluorescence anisotropy; 10 nM probe; mutant comparison series; FA and competition: 50 mM Hepes pH 7.0, 150 mM NaCl, 1 mM DTT; temperature not stated. Crystals: 50 mM Hepes pH 7.5, 150 mM NaCl, 1 mM DTT; 0.1 M Mg formate, 15% PEG3350, 20 C; conditions: protein: recombinant; chain copies: 2; label: 5' rhodamine (C6 amino) on strand 2; blunt
T1 sequence: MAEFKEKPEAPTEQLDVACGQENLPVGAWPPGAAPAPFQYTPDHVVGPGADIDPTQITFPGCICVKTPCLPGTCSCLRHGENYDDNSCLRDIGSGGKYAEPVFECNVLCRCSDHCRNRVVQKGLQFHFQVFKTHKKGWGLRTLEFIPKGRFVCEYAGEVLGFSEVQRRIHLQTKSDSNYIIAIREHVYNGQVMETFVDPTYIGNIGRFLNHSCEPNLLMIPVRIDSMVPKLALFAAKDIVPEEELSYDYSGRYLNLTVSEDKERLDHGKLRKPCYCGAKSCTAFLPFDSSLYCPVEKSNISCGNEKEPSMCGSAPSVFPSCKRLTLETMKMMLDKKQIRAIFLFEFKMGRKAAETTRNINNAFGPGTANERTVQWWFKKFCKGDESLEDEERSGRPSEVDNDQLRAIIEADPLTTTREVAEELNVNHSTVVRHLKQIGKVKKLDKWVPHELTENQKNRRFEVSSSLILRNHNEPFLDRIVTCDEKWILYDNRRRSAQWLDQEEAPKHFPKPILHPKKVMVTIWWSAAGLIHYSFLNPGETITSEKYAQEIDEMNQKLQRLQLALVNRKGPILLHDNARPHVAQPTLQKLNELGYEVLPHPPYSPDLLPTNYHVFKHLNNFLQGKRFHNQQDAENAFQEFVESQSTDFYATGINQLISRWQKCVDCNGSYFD

SETMAR full-length WT [3] = target: T1, SETMAR full-length WT; assay: fluorescence anisotropy; 20 nM probe; FA and competition: 50 mM Hepes pH 7.0, 150 mM NaCl, 1 mM DTT; temperature not stated. Crystals: 50 mM Hepes pH 7.5, 150 mM NaCl, 1 mM DTT; 0.1 M Mg formate, 15% PEG3350, 20 C; conditions: protein: recombinant; chain copies: 2; label: 5' rhodamine (C6 amino) on strand 2; blunt
SETMAR R371A = target: T2, SETMAR R371A (Homo sapiens, UniProt Q53H47 14-684, R384A); assay: fluorescence anisotropy; 10 nM probe; FA and competition: 50 mM Hepes pH 7.0, 150 mM NaCl, 1 mM DTT; temperature not stated. Crystals: 50 mM Hepes pH 7.5, 150 mM NaCl, 1 mM DTT; 0.1 M Mg formate, 15% PEG3350, 20 C; conditions: protein: recombinant; chain copies: 2; label: 5' rhodamine (C6 amino) on strand 2; blunt
T2 sequence: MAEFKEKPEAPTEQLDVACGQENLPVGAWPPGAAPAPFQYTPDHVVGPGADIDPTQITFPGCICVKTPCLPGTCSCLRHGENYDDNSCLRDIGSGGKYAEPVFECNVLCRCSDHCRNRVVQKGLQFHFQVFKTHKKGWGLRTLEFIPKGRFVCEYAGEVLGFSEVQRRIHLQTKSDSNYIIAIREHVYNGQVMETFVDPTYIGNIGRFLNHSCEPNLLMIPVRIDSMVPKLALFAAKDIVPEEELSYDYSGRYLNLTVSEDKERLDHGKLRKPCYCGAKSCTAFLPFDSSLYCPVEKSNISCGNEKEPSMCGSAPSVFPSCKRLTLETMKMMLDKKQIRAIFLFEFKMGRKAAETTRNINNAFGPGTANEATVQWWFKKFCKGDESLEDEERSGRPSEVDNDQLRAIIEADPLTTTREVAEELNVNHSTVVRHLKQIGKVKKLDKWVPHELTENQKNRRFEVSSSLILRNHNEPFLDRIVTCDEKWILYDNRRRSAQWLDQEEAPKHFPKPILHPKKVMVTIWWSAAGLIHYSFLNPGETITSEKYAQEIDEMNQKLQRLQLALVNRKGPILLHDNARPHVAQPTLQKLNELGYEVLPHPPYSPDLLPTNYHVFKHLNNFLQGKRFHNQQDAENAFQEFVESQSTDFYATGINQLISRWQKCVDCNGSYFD

SETMAR S428A = target: T3, SETMAR S428A (Homo sapiens, UniProt Q53H47 14-684, S441A); assay: as above; conditions: protein: recombinant; chain copies: 2; label: 5' rhodamine (C6 amino) on strand 2; blunt
T3 sequence: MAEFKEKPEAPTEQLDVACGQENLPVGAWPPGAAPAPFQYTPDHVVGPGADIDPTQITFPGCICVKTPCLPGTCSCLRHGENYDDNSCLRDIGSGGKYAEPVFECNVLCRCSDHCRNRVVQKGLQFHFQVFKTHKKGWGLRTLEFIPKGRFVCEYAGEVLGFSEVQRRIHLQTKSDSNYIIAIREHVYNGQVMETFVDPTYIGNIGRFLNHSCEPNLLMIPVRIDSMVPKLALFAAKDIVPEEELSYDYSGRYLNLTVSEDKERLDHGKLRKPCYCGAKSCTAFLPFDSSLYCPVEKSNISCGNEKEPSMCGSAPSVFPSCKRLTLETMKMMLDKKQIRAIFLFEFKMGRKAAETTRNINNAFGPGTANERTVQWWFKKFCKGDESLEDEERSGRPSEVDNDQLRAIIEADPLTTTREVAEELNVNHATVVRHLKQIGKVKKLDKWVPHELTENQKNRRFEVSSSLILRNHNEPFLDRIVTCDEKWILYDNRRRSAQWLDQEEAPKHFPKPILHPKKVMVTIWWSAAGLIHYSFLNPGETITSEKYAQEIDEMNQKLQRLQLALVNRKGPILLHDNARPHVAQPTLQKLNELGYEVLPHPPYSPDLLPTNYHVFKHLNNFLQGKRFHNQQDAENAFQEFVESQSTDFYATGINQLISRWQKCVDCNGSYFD

SETMAR R432A = target: T4, SETMAR R432A (Homo sapiens, UniProt Q53H47 14-684, R445A); assay: as above; conditions: protein: recombinant; chain copies: 2; label: 5' rhodamine (C6 amino) on strand 2; blunt
T4 sequence: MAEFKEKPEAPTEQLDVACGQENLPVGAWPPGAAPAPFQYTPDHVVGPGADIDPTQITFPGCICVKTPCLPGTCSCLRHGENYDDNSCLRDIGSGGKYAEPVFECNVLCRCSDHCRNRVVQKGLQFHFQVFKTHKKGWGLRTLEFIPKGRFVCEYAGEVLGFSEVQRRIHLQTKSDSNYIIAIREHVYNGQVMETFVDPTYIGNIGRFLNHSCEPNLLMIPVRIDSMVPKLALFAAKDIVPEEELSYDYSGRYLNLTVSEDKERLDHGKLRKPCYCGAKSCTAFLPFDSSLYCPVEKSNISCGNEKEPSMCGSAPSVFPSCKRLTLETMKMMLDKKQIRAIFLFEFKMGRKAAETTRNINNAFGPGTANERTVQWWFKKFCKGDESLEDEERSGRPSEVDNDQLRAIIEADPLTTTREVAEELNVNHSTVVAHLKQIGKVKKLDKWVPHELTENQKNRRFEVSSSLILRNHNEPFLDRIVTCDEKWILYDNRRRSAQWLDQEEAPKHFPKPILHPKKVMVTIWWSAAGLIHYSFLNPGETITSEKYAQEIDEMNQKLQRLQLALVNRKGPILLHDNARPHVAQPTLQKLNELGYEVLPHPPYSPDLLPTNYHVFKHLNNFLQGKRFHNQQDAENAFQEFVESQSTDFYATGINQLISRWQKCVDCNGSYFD

[4] = target: T5, SETMAR DBD C381R I359M L423M (SeMet) (Homo sapiens, UniProt Q53H47 342-453, I372M;C394R;L436M); assay: X-ray crystallography; Se-SAD phasing, 2.66 A; FA and competition: 50 mM Hepes pH 7.0, 150 mM NaCl, 1 mM DTT; temperature not stated. Crystals: 50 mM Hepes pH 7.5, 150 mM NaCl, 1 mM DTT; 0.1 M Mg formate, 15% PEG3350, 20 C; conditions: protein: recombinant; tags: none (His-SUMO removed); chain copies: 2; 25 bp, 3' overhang 1 nt on each strand (A and T)
T5 sequence: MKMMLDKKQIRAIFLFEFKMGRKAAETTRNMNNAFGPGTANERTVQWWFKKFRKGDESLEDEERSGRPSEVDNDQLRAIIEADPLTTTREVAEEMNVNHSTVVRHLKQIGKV

SETMAR full-length WT [5] = target: T1, SETMAR full-length WT; assay: competition (fluorescence anisotropy); 300 nM protein, 20 nM probe; FA and competition: 50 mM Hepes pH 7.0, 150 mM NaCl, 1 mM DTT; temperature not stated. Crystals: 50 mM Hepes pH 7.5, 150 mM NaCl, 1 mM DTT; 0.1 M Mg formate, 15% PEG3350, 20 C; conditions: protein: recombinant; chain copies: 2; blunt
SETMAR DBD C381R = target: T6, SETMAR DBD C381R (Homo sapiens, UniProt Q53H47 342-453, C394R); assay: X-ray crystallography; 2.37 A; FA and competition: 50 mM Hepes pH 7.0, 150 mM NaCl, 1 mM DTT; temperature not stated. Crystals: 50 mM Hepes pH 7.5, 150 mM NaCl, 1 mM DTT; 0.1 M Mg formate, 15% PEG3350, 20 C; conditions: protein: recombinant; tags: none (His-SUMO removed); chain copies: 2; 25 bp, 3' overhang 1 nt on each strand (A and T)
T6 sequence: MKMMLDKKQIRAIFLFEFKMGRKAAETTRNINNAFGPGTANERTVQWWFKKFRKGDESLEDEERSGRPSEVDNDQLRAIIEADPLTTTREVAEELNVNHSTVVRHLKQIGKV

How did the stoichiometry N [1] turn out when “SETMAR DNA-binding domain, residues 329 to 440 (C381R) (I359M) (L423M) (domain or fragment)” was run?
Its stoichiometry N is 2.

B1: rhodamine Hsmar1 TIR probe (dsDNA)
DNA 1: TTAGGTTGGTGCAAAAGTAATTGCGGTT
DNA 2: AACCGCAATTACTTTTGCACCAACCTAA
What does the source list for B1?
Kd (SETMAR full-length WT [2]): 42 ± 5 nM; Kd (SETMAR full-length WT [3]): 53 ± 4 nM; Kd (SETMAR R371A): 521 ± 65 nM; Kd (SETMAR S428A): 485 ± 58 nM; Kd (SETMAR R432A): 302 ± 47 nM

B2: BrdU-substituted TIR crystallization duplex (dsDNA)
DNA 1: GGTTGGTGCAAAAGTAATTGCGGTTA
DNA 2: AACCGCAATTACTTTTGCACCAACCT
modifications: 5-bromodeoxyuridine replacing underlined Ts (positions not visible in text)
Does B2 bind [4]?
Result: binds

B3: Mos1 TIR (dsDNA)
DNA 1: TCAGGTGTACAAGTATGAAATGTCGTTT
DNA 2: AAACGACATTTCATACTTGTACACCTGA
Does B3 bind (SETMAR full-length WT [5])?
Result: no binding

B4: Hsmar1 TIR without sequence-specific binding sites (dsDNA)
DNA 1: TTAGGTTAATATAAAAGTAATTGTGGTT
DNA 2: AACCACAATTACTTTTATATTAACCTAA
Does B4 bind (SETMAR full-length WT [5])?
Result: no binding

B5: TIR crystallization duplex (dsDNA)
DNA 1: GGTTGGTGCAAAAGTAATTGCGGTTA
DNA 2: AACCGCAATTACTTTTGCACCAACCT
Does B5 bind (SETMAR DBD C381R)?
Result: binds
